“And” between values parts separate entries of the source, which are not always exact repeats. Equal values may be shown once.
Molecular target: Mab Select SuRe Ligand
Assay: SPR (Biacore T200), SuRe ligand on CM5 chip, antibody 5 ug/mL

SuRe binding (RU)	Binder
2460 RU	TR01H093-E2702GsKsc/L0011-k0 (antibody, human IgG4 S228P, kappa, N297A, V domains shown) VH: QVQLVESGGGLVQPGRSLRLSCAASGFTFSNAWMHWVRQAPGKGLEWVAQIKDKSQNYATYYAESVQGRFTISRDDSKNSLYLQMNSLKTEDTAVYYCRYVHYAAGYGVDAWGQGTTVTVSS VL: DIVMTQSPLSLPVTPGEPASISCRSSQPLVHSNRNTYLHWYQQKPGQAPRLLIYKVSNRFSGVPDRFSGSGSGTDFTLKISRVEAEDVGVYYCGQGTQVPYTFGQGTKLEIKR
1490 RU	TR01H114-E2702GsKsc/L0011-k0 (antibody, human IgG4 S228P, kappa, N297A, V domains shown) VH: QVQLVESGGGVVQPGGSLRLSCAASGFTFSNAWMHWVRQAPGKGLEWVAQIKDKSQNYASYYAESVKGRFTISRADSKNSIYLQMNSLKTEDTAVYYCRYVHYAAGYGVDIWGQGTTVTVSS VL: DIVMTQSPLSLPVTPGEPASISCRSSQPLVHSNRNTYLHWYQQKPGQAPRLLIYKVSNRFSGVPDRFSGSGSGTDFTLKISRVEAEDVGVYYCGQGTQVPYTFGQGTKLEIKR
7 RU	TR01H113-E2702GsKsc/L0011-k0 (antibody, human IgG4 S228P, kappa, N297A, V domains shown) VH: QVQLVESGGGVVQPGGSLRLSCAASGFTFSNAWMHWVRQAPGKGLEWVAQIKDKSQNYATYVAESVKGRFTISRADSKNSIYLQMNSLKTEDTAVYYCRYVHYAAGYGVDIWGQGTTVTVSS VL: DIVMTQSPLSLPVTPGEPASISCRSSQPLVHSNRNTYLHWYQQKPGQAPRLLIYKVSNRFSGVPDRFSGSGSGTDFTLKISRVEAEDVGVYYCGQGTQVPYTFGQGTKLEIKR
2350 RU	TR01H094-E2702GsKsc/L0011-k0 (antibody, human IgG4 S228P, kappa, N297A, V domains shown) VH: QVQLVESGGGLVQPGRSLRLSCAASGFTFSNAWMHWVRQAPGKGLEWVAQIKDKSQNYATYYAESVSGRFTISRDDSKNSLYLQMNSLKTEDTAVYYCRYVHYAAGYGVDAWGQGTTVTVSS VL: DIVMTQSPLSLPVTPGEPASISCRSSQPLVHSNRNTYLHWYQQKPGQAPRLLIYKVSNRFSGVPDRFSGSGSGTDFTLKISRVEAEDVGVYYCGQGTQVPYTFGQGTKLEIKR
8.8 RU	TR01H112-E2702GsKsc/L0011-k0 (antibody, human IgG4 S228P, kappa, N297A, V domains shown) VH: QVQLVESGGGVVQPGGSLRLSCAASGFTFSNAWMHWVRQAPGKGLEWVAQIKDKSQNYAQYYAESVKGRFTISRADSKNSIYLQMNSLKTEDTAVYYCRYVHYAAGYGVDIWGQGTTVTVSS VL: DIVMTQSPLSLPVTPGEPASISCRSSQPLVHSNRNTYLHWYQQKPGQAPRLLIYKVSNRFSGVPDRFSGSGSGTDFTLKISRVEAEDVGVYYCGQGTQVPYTFGQGTKLEIKR
383 RU	TR01H100-E2702GsKsc/L0011-k0 (antibody, human IgG4 S228P, kappa, N297A, V domains shown) VH: QVQLVESGGGLVQPGRSLRLSCAASGFTFSNAWMHWVRQAPGKGLEWVAQIKDKSQNYASYYAESVKGRFTISRDDSKNSLYLQMNSLKTEDTAVYYCRYVHYAAGYGVDAWGQGTTVTVSS VL: DIVMTQSPLSLPVTPGEPASISCRSSQPLVHSNRNTYLHWYQQKPGQAPRLLIYKVSNRFSGVPDRFSGSGSGTDFTLKISRVEAEDVGVYYCGQGTQVPYTFGQGTKLEIKR
1160 RU	TR01H092-E2702GsKsc/L0011-k0 (antibody, human IgG4 S228P, kappa, N297A, V domains shown) VH: QVQLVESGGGLVQPGRSLRLSCAASGFTFSNAWMHWVRQAPGKGLEWVAQIKDKSQNYATYYAESVAGRFTISRDDSKNSLYLQMNSLKTEDTAVYYCRYVHYAAGYGVDAWGQGTTVTVSS VL: DIVMTQSPLSLPVTPGEPASISCRSSQPLVHSNRNTYLHWYQQKPGQAPRLLIYKVSNRFSGVPDRFSGSGSGTDFTLKISRVEAEDVGVYYCGQGTQVPYTFGQGTKLEIKR
5070 RU	TR01H084-E2702GsKsc/L0011-k0 (antibody, human IgG4 S228P, kappa, N297A) heavy: QVQLVESGGGVVQPGGSLRLSCAASGFTFSNAWMHWVRQAPGKGLEWVAQIKDKSQNYATYYAESVKGRFTISRADSKNSIYLQMNSLKTEDTAVYYCRYVHYAAGYGVDIWGQGTTVTVSSASTKGPSVFPLAPCSRSTSESTAALGCLVKDYFPEPVTVSWNSGALTSGVHTFPAVLQSSGLYSLSSVVTVPSSSLGTKTYTCNVDHKPSNTKVDKRVESKYGPPCPPCPAPEFRGGPKVFLFPPKPKDTLMISRTPEVTCVVVDVSQEDPEVQFNWYVDGVEVHNAKTKPREEQFASTYRVVSVLTVLHQDWLNGKEYKCKVSNKGLPSSIEKTISKAKGQPREPQVYTLPPSQKEMTKNQVSLTCLVKGFYPSDIAVEWESNGQPENNYKTTPPVLDSDGSFFLYSKLTVDKSRWQEGNVFSCSVMHEALHNRYTQKSLSLSP light: DIVMTQSPLSLPVTPGEPASISCRSSQPLVHSNRNTYLHWYQQKPGQAPRLLIYKVSNRFSGVPDRFSGSGSGTDFTLKISRVEAEDVGVYYCGQGTQVPYTFGQGTKLEIKRTVAAPSVFIFPPSDEQLKSGTASVVCLLNNFYPREAKVQWKVDNALQSGNSQESVTEQDSKDSTYSLSSTLTLSKADYEKHKVYACEVTHQGLSSPVTKSFNRGEC
4470 RU	TR01H082-E2702GsKsc/L0011-k0 (antibody, human IgG4 S228P, kappa, N297A) heavy: QVQLVESGGGLVQPGRSLRLSCAASGFTFSNAWMHWVRQAPGKGLEWVAQIKDKSQNYATYYAESVKGRFTISRDDSKNSLYLQMNSLKTEDTAVYYCRYVHYAAGYGVDAWGQGTTVTVSSASTKGPSVFPLAPCSRSTSESTAALGCLVKDYFPEPVTVSWNSGALTSGVHTFPAVLQSSGLYSLSSVVTVPSSSLGTKTYTCNVDHKPSNTKVDKRVESKYGPPCPPCPAPEFRGGPKVFLFPPKPKDTLMISRTPEVTCVVVDVSQEDPEVQFNWYVDGVEVHNAKTKPREEQFASTYRVVSVLTVLHQDWLNGKEYKCKVSNKGLPSSIEKTISKAKGQPREPQVYTLPPSQKEMTKNQVSLTCLVKGFYPSDIAVEWESNGQPENNYKTTPPVLDSDGSFFLYSKLTVDKSRWQEGNVFSCSVMHEALHNRYTQKSLSLSP light: DIVMTQSPLSLPVTPGEPASISCRSSQPLVHSNRNTYLHWYQQKPGQAPRLLIYKVSNRFSGVPDRFSGSGSGTDFTLKISRVEAEDVGVYYCGQGTQVPYTFGQGTKLEIKRTVAAPSVFIFPPSDEQLKSGTASVVCLLNNFYPREAKVQWKVDNALQSGNSQESVTEQDSKDSTYSLSSTLTLSKADYEKHKVYACEVTHQGLSSPVTKSFNRGEC
29.5 RU	TR01H110-E2702GsKsc/L0011-k0 (antibody, human IgG4 S228P, kappa, N297A) heavy: QVQLVESGGGVVQPGRSLKLSCAASGFTFSNAWMHWVRQAPGKGLEWVAQIKDKSQNYATYYAESVKGRFTISRDDSKNSLYLQMNSLKTEDTAVYYCRYVHYAAGYGVDAWGQGTTVTVSSASTKGPSVFPLAPCSRSTSESTAALGCLVKDYFPEPVTVSWNSGALTSGVHTFPAVLQSSGLYSLSSVVTVPSSSLGTKTYTCNVDHKPSNTKVDKRVESKYGPPCPPCPAPEFRGGPKVFLFPPKPKDTLMISRTPEVTCVVVDVSQEDPEVQFNWYVDGVEVHNAKTKPREEQFASTYRVVSVLTVLHQDWLNGKEYKCKVSNKGLPSSIEKTISKAKGQPREPQVYTLPPSQKEMTKNQVSLTCLVKGFYPSDIAVEWESNGQPENNYKTTPPVLDSDGSFFLYSKLTVDKSRWQEGNVFSCSVMHEALHNRYTQKSLSLSP light: DIVMTQSPLSLPVTPGEPASISCRSSQPLVHSNRNTYLHWYQQKPGQAPRLLIYKVSNRFSGVPDRFSGSGSGTDFTLKISRVEAEDVGVYYCGQGTQVPYTFGQGTKLEIKRTVAAPSVFIFPPSDEQLKSGTASVVCLLNNFYPREAKVQWKVDNALQSGNSQESVTEQDSKDSTYSLSSTLTLSKADYEKHKVYACEVTHQGLSSPVTKSFNRGEC
50.7 RU	TR01H111-E2702GsKsc/L0011-k0 (antibody, human IgG4 S228P, kappa, N297A) heavy: QVQLVESGGGVVQPGGSLKLSCAASGFTFSNAWMHWVRQAPGKGLEWVAQIKDKSQNYATYYAESVKGRFTISRADSKNSIYLQMNSLKTEDTAVYYCRYVHYAAGYGVDIWGQGTTVTVSSASTKGPSVFPLAPCSRSTSESTAALGCLVKDYFPEPVTVSWNSGALTSGVHTFPAVLQSSGLYSLSSVVTVPSSSLGTKTYTCNVDHKPSNTKVDKRVESKYGPPCPPCPAPEFRGGPKVFLFPPKPKDTLMISRTPEVTCVVVDVSQEDPEVQFNWYVDGVEVHNAKTKPREEQFASTYRVVSVLTVLHQDWLNGKEYKCKVSNKGLPSSIEKTISKAKGQPREPQVYTLPPSQKEMTKNQVSLTCLVKGFYPSDIAVEWESNGQPENNYKTTPPVLDSDGSFFLYSKLTVDKSRWQEGNVFSCSVMHEALHNRYTQKSLSLSP light: DIVMTQSPLSLPVTPGEPASISCRSSQPLVHSNRNTYLHWYQQKPGQAPRLLIYKVSNRFSGVPDRFSGSGSGTDFTLKISRVEAEDVGVYYCGQGTQVPYTFGQGTKLEIKRTVAAPSVFIFPPSDEQLKSGTASVVCLLNNFYPREAKVQWKVDNALQSGNSQESVTEQDSKDSTYSLSSTLTLSKADYEKHKVYACEVTHQGLSSPVTKSFNRGEC
3610 RU	TR01H090-E2702GsKsc/L0011-k0 (antibody, human IgG4 S228P, kappa, N297A) heavy: QVQLVESGGGLVQPGGSLRLSCAASGFTFSNAWMHWVRQAPGKGLEWVAQIKDKSQNYATYYAESVKGRFTISRDDSKNSLYLQMNSLKTEDTAVYYCRYVHYAAGYGVDAWGQGTTVTVSSASTKGPSVFPLAPCSRSTSESTAALGCLVKDYFPEPVTVSWNSGALTSGVHTFPAVLQSSGLYSLSSVVTVPSSSLGTKTYTCNVDHKPSNTKVDKRVESKYGPPCPPCPAPEFRGGPKVFLFPPKPKDTLMISRTPEVTCVVVDVSQEDPEVQFNWYVDGVEVHNAKTKPREEQFASTYRVVSVLTVLHQDWLNGKEYKCKVSNKGLPSSIEKTISKAKGQPREPQVYTLPPSQKEMTKNQVSLTCLVKGFYPSDIAVEWESNGQPENNYKTTPPVLDSDGSFFLYSKLTVDKSRWQEGNVFSCSVMHEALHNRYTQKSLSLSP light: DIVMTQSPLSLPVTPGEPASISCRSSQPLVHSNRNTYLHWYQQKPGQAPRLLIYKVSNRFSGVPDRFSGSGSGTDFTLKISRVEAEDVGVYYCGQGTQVPYTFGQGTKLEIKRTVAAPSVFIFPPSDEQLKSGTASVVCLLNNFYPREAKVQWKVDNALQSGNSQESVTEQDSKDSTYSLSSTLTLSKADYEKHKVYACEVTHQGLSSPVTKSFNRGEC
27.5 RU and 15 RU	TR01H091-E2702GsKsc/L0011-k0 (antibody, human IgG4 S228P, kappa, N297A) heavy: QVQLVESGGGLVQPGRSLKLSCAASGFTFSNAWMHWVRQAPGKGLEWVAQIKDKSQNYATYYAESVKGRFTISRDDSKNSLYLQMNSLKTEDTAVYYCRYVHYAAGYGVDAWGQGTTVTVSSASTKGPSVFPLAPCSRSTSESTAALGCLVKDYFPEPVTVSWNSGALTSGVHTFPAVLQSSGLYSLSSVVTVPSSSLGTKTYTCNVDHKPSNTKVDKRVESKYGPPCPPCPAPEFRGGPKVFLFPPKPKDTLMISRTPEVTCVVVDVSQEDPEVQFNWYVDGVEVHNAKTKPREEQFASTYRVVSVLTVLHQDWLNGKEYKCKVSNKGLPSSIEKTISKAKGQPREPQVYTLPPSQKEMTKNQVSLTCLVKGFYPSDIAVEWESNGQPENNYKTTPPVLDSDGSFFLYSKLTVDKSRWQEGNVFSCSVMHEALHNRYTQKSLSLSP light: DIVMTQSPLSLPVTPGEPASISCRSSQPLVHSNRNTYLHWYQQKPGQAPRLLIYKVSNRFSGVPDRFSGSGSGTDFTLKISRVEAEDVGVYYCGQGTQVPYTFGQGTKLEIKRTVAAPSVFIFPPSDEQLKSGTASVVCLLNNFYPREAKVQWKVDNALQSGNSQESVTEQDSKDSTYSLSSTLTLSKADYEKHKVYACEVTHQGLSSPVTKSFNRGEC
